Drawing on patent US20210388083A1, this text covers Kd, koff and kon for four substances.

In test [1] the target is histidine-tagged human FcγRIIIa-158V (human) (UniProt P08637). The test can be described thus: BLI (Octet Red384); His-tagged receptor on anti-Penta-HIS biosensor; antibody 15.6-500 nM, PBS pH 7.2; global 1:1 fit.
The target of test [2] is histidine-tagged human FcRn (human) (UniProt P55899). The test can be described thus: BLI (Octet Red384); His-tagged receptor on anti-Penta-HIS biosensor; antibody 75-1000 nM, PBS pH 5.8; global 1:1 fit.
Test [3] addresses histidine-tagged mouse FcRn (mouse) (UniProt Q61559). The description is as above.
Test [4] has as its target histidine-tagged human FcγRIIIa-158F (human) (UniProt P08637). The test can be described thus: BLI (Octet Red384); His-tagged receptor on anti-Penta-HIS biosensor; antibody 125-4000 nM, PBS pH 7.2; global 1:1 fit.
In test [5] the target is histidine-tagged human FcγRIIIa-158V (human) (UniProt P08637). The description is as above.
Test [6] deals with histidine-tagged mouse FcγRIV (mouse). Described as above.
Test [7] addresses histidine-tagged human FcRn (human) (UniProt P55899). The test can be described thus: BLI (Octet Red384); His-tagged receptor (row FcRn) on anti-Penta-HIS biosensor; antibody 75-1000 nM, PBS pH 5.8; global 1:1 fit.
The target of test [8] is histidine-tagged mouse FcRn (mouse) (UniProt Q61559). The test can be described thus: BLI (Octet Red384); His-tagged receptor (row moFcRn) on anti-Penta-HIS biosensor; antibody 75-1000 nM, PBS pH 5.8; global 1:1 fit.
Test [9] addresses histidine-tagged mouse FcγRIV (mouse). The test can be described thus: BLI (Octet Red384); His-tagged receptor (row moFcγRIV) on anti-Penta-HIS biosensor; antibody 125-4000 nM, PBS pH 7.2; global 1:1 fit.
Test [10] deals with histidine-tagged human FcγRIIIa-158F (human) (UniProt P08637). The test can be described thus: BLI (Octet Red384); His-tagged receptor (row FcγRIIIA (F158)) on anti-Penta-HIS biosensor; antibody 125-4000 nM, PBS pH 7.2; global 1:1 fit.
For test [11], the target named is histidine-tagged human FcγRIIIa-158V (human) (UniProt P08637). The test can be described thus: BLI (Octet Red384); His-tagged receptor (row FcγRIIIA (V158)) on anti-Penta-HIS biosensor; antibody 125-4000 nM, PBS pH 7.2; global 1:1 fit.

On to “antigen-binding molecule specific for HER3 comprising GASD Fc, human IgG1 (G1m3 allotype) (antibody)”, for which, in [1], the Kd was found to be 115 nM, the koff was 0.017 s⁻¹ and the on-rate (kon) is 150000 M⁻¹ s⁻¹.
In test [1], “antigen-binding molecule specific for HER3 comprising GASDALIE Fc, human IgG1 (G1m3 allotype) (antibody)” yielded a dissociation constant Kd of 24 nM, an off-rate (koff) of 0.0052 s⁻¹ and an on-rate constant (kon) of 220000 M⁻¹ s⁻¹.
On the same counts, the results for “antigen-binding molecule specific for HER3 comprising GASDIE Fc, human IgG1 (G1m3 allotype) (antibody)” are 35 nM, 0.0072 s⁻¹ and 200000 M⁻¹ s⁻¹.
As to “antigen-binding molecule specific for HER3 comprising Wildtype (WT) Fc, human IgG1 (G1m3 allotype) (antibody)”, the Kd amounted to 33.7 nM in [2]; 15.1 nM in [3]; 317 nM in test [1]; 2230 nM in test [4]; 661 nM in test [5]; 544 nM in [6]. The Kd in test [7] was 33.7 nM; in test [8] it was 15.1 nM; in test [9], 544 nM; in test [10], 2230 nM; in test [11], 661 nM.
